Target: T1, Recombinant human Fc-tagged NRXN2α (human Nrxn2α-Fc, R&D Systems #6636-NX) (human, UniProt Q9P2S2 29-1636)
T1 construct: Neurexin2α (Nrxn2α), human, ectodomain; The catalogue number is printed for the pull-down only; Limits and splice variant are in the supplier's data sheet; also called soluble Nrxn2α ectodomain; soluble Nrxn2α; source: bought: R&D Systems (#6636-NX), highly purified
Assay: SPR; Biacore T200; IgSF21-His amine-coupled to a CM5 chip (500 RU); NRXN2α-Fc as analyte, 0 to 200 nM; PBS pH 7.4, 0.025% Tween-20, 25°C, 20 μl/min; one-site Langmuir (1:1) model, kinetic analysis
Details: both partners purified

T1 sequence (Q9P2S2 29-1636): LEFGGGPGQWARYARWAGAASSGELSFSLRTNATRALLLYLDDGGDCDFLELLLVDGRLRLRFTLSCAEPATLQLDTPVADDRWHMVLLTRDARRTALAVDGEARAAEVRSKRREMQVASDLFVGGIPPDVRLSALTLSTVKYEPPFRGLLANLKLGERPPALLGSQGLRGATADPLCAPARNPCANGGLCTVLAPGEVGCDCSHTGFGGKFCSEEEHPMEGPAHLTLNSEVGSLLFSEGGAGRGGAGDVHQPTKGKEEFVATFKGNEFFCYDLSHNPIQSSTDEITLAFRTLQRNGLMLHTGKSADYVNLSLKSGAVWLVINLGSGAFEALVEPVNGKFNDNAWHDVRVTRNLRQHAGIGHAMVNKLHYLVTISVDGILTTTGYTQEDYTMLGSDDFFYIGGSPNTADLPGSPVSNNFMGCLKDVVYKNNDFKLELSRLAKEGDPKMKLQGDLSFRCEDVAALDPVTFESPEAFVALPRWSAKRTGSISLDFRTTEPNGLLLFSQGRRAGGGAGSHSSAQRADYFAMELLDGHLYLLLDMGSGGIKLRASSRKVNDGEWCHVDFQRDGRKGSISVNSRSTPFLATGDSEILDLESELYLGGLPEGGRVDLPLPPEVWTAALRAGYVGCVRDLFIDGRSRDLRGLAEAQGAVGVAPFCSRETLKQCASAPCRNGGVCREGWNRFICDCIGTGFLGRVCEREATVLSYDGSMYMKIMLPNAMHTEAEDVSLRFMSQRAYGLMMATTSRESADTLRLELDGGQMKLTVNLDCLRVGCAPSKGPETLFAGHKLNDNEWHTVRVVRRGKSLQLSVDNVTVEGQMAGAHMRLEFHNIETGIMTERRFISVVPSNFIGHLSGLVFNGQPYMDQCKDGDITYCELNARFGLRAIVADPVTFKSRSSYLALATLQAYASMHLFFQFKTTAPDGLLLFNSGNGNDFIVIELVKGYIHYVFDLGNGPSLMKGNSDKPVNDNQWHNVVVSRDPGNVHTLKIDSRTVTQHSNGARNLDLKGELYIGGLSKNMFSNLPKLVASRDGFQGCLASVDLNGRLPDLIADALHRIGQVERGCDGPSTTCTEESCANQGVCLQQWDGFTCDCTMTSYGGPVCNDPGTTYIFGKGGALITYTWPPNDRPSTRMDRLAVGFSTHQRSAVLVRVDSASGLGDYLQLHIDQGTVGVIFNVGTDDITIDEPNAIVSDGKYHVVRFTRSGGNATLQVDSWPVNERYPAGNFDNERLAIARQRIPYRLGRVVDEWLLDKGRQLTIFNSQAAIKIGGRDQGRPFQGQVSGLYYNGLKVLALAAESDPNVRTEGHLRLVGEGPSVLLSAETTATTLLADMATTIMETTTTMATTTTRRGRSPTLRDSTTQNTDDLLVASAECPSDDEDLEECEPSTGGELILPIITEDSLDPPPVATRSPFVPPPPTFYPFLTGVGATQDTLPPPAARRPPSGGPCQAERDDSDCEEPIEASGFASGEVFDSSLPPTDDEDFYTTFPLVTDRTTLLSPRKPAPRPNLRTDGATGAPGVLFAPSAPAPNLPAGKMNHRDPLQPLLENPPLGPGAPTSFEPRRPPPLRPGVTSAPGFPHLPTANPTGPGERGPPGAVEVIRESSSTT

Kd: 5.67 nM
B1: Recombinant human His-tagged IgSF21 protein (R&D Systems #10330-S2) (natural protein, UniProt Q96ID5 25-444, looked up)
chain: YLTVNIEPLPPVVAGDAVTLKCNFKTDGRMREIVWYRVTDGGTIKQKIFTFDAMFSTNYSHMENYRKREDLVYQSTVRLPEVRISDNGPYECHVGIYDRATREKVVLASGNIFLNVMAPPTSIEVVAADTPAPFSRYQAQNFTLVCIVSGGKPAPMVYFKRDGEPIDAVPLSEPPAASSGPLQDSRPFRSLLHRDLDDTKMQKSLSLLDAENRGGRPYTERPSRGLTPDPNILLQPTTENIPETVVSREFPRWVHSAEPTYFLRHSRTPSSDGTVEVRALLTWTLNPQIDNEALFSCEVKHPALSMPMQAEVTLVAPKGPKIVMTPSRARVGDTVRILVHGFQNEVFPEPMFTWTRVGSRLLDGSAEFDGKELVLERVPAELNGSMYRCTAQNPLGSTDTHTRLIVFENPNIPRGTEDSN
notes: Immunoglobulin superfamily member 21 (IgSF21), human, soluble recombinant protein; Soluble bought protein, probably the ectodomain without the GPI-anchor signal; also called IgSF21-His; human IgSF21-His; source: bought: R&D Systems (#10330-S2), purified

Reference: PMC10989685, “Structural and functional characterization of the IgSF21-neurexin2α complex and its related signaling pathways in the regulation of inhibitory synapse organization” (Frontiers in Molecular Neuroscience, 2024)
